These results are taken from the supplement of paper PMC7877785.

A short description of this data set: self-splicing fitness, log relative to wild type (ln ratio); higher = more splicing; Tetrahymena group I intron in knt gene, E. coli kanamycin selection, DiMSum; sequences stand for … in CUCUCU…GGAGGGAAAAGUUAUCAGGCAUGCACCUGGUAGCUAGUCUUUAAACCAAUAGAUUGCAUCGGUUUAAAAGGCAAGACCGUCAAAUUGCGGGAAAGGGGUCAACAGCCGUUCAGUACCAAGUCUCAGGGGAAACUUUGAGAUGGCCUUGCAAAGGGUAUGGUAAUAAGCUGACGGACAUGGUCCUAACCACGCAGCCAAGUCCUAAGUCAACAGAUCUUCUGUUGAUAUGGAUGCAGUUCACAGACUAAAUGUCGGUCGGGGAAGAUGUAUUCUUCUCAUAAGAUAUAGUCGGACCUCUCCUUAAUGGGAGCUAGCGGAUGAAGUGAUGCAACACUGGAGCCGCUGGGAACUAAUUUGUAUGCGAAAGUAUAUUGAUUAGUUUUGGAGUACUCGUGGUCG
The method in brief:
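A randomised library covering all eight P1ex-region intron nucleotides was built with the intron in the knt kanamycin-resistance gene on pET-22b(+) and held in E. coli BL21(DE3). Cells were grown overnight at 37°C or 30°C on LB agar, with or without 25 μg/mL kanamycin, plus 100 μg/mL carbenicillin, 50 μM IPTG and 0.2% rhamnose, and pooled colonies were amplicon-sequenced on an Illumina HiSeq 2500. DiMSum fitness is the error-weighted combination of wild-type-normalised replicate fold changes, kanamycin versus none.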

± gives the uncertainty stated by the source.

For the sequence CUUAAGCAAUAUUACGAAGG, the “self-splicing fitness (ln)” value (30 °C) is -2.89 ± 0.17 and the “self-splicing fitness (ln)” value (37 °C) is -1.54 ± 0.24.

In the case of CUUGAGCAAUAUUACGGCUG, the “self-splicing fitness (ln)” value (30 °C) was -1.55 ± 0.14 and the “self-splicing fitness (ln)” value (37 °C) is -1.46 ± 0.19.

For the sequence GCCUAGCAAUAUUACGAGUU, the “self-splicing fitness (ln)” value reads like this: (30 °C) -1.58 ± 0.061; (37 °C) -0.309 ± 0.078. For UCAAAGCAAUAUUACGCAGU the same measures were -3.16 ± 0.19 and -3.42 ± 0.31. For UGGGAGCAAUAUUACGGGAC the same measures were -4.71 ± 0.46 and -2.7 ± 0.38.

Take AUUUAGCAAUAUUACGGGCU: the “self-splicing fitness (ln)” value runs as follows: (30 °C) -2.71 ± 0.19; (37 °C) -0.78 ± 0.16. For UACUAGCAAUAUUACGCAGU the same measures were -3.26 ± 0.35 and -3.09 ± 0.34.

For CACGAGCAAUAUUACGACUG, the “self-splicing fitness (ln)” value runs as follows: (30 °C) -2.46 ± 0.1; (37 °C) -0.773 ± 0.12. For AGGUAGCAAUAUUACGUAAG the same measures were -2.267 ± 0.017 and -1.25 ± 0.034.

Regarding AUGAAGCAAUAUUACGCGGU, the “self-splicing fitness (ln)” value (30 °C) is -2.88 ± 0.24 and the “self-splicing fitness (ln)” value (37 °C) was -1.71 ± 0.2. For the sequence GCGUAGCAAUAUUACGAGCA, the “self-splicing fitness (ln)” value by setting is: (30 °C) -1.28 ± 0.082; (37 °C) -0.574 ± 0.094. Turning to CCAAAGCAAUAUUACGGAAU, the “self-splicing fitness (ln)” value (30 °C) is -4.11 ± 0.39 and the “self-splicing fitness (ln)” value (37 °C) was -2.95 ± 0.22. On to CCCCAGCAAUAUUACGUCUA, for which the “self-splicing fitness (ln)” value was -3.09 ± 0.14 (30 °C) and -2.84 ± 0.2 (37 °C).

Regarding GAUUAGCAAUAUUACGUUAU, the “self-splicing fitness (ln)” value is, setting by setting: (30 °C) -3.04 ± 0.21; (37 °C) -2.51 ± 0.18. The corresponding values for CGCAAGCAAUAUUACGUCUG are -1.13 ± 0.06 and -0.286 ± 0.075. The corresponding values for AGACAGCAAUAUUACGUUAU are -2.29 ± 0.1 and -2.06 ± 0.12.

For GUACAGCAAUAUUACGAACA, the “self-splicing fitness (ln)” value reads like this: (30 °C) -1.51 ± 0.11; (37 °C) -0.736 ± 0.11. The corresponding values for GCGAAGCAAUAUUACGUGAU are -2.53 ± 0.092 and -0.973 ± 0.098.

Turning to CGGAAGCAAUAUUACGUAGU, the “self-splicing fitness (ln)” value reads like this: (30 °C) -3.43 ± 0.14; (37 °C) -1.97 ± 0.13. For AUCCAGCAAUAUUACGCCCC the same measures were -0.216 ± 0.11 and 0.691 ± 0.19. On to ACAGAGCAAUAUUACGUAAG, for which the “self-splicing fitness (ln)” value is, setting by setting: (30 °C) -2.36 ± 0.11; (37 °C) -1.73 ± 0.14.

On to CGUUAGCAAUAUUACGGUUA, for which the “self-splicing fitness (ln)” value was -1.55 ± 0.21 (30 °C) and -1.66 ± 0.17 (37 °C). As for GCGGAGCAAUAUUACGUAUC, where the note is “30 °C”, the “self-splicing fitness (ln)” value was -1.83 ± 0.33. As to CCCGAGCAAUAUUACGCGGU, the “self-splicing fitness (ln)” value was -3.37 ± 0.16 (30 °C) and -2.7 ± 0.17 (37 °C). As to UAGAAGCAAUAUUACGUUGC, the “self-splicing fitness (ln)” value runs as follows: (30 °C) -4.3 ± 0.27; (37 °C) -2.82 ± 0.24. The corresponding values for AUCUAGCAAUAUUACGGACG are -0.422 ± 0.07 and 0.212 ± 0.094.

With AGGAAGCAAUAUUACGCCGG, the “self-splicing fitness (ln)” value is -0.87 ± 0.17 (30 °C) and -0.612 ± 0.23 (37 °C). The corresponding values for AUGUAGCAAUAUUACGUGCC are -1.65 ± 0.22 and -0.677 ± 0.2. The corresponding values for GCUAAGCAAUAUUACGUUUC are -3 ± 0.16 and -0.945 ± 0.12. The corresponding values for UUGCAGCAAUAUUACGUCGC are -3.09 ± 0.28 and -2.16 ± 0.35.

Turning to UAAGAGCAAUAUUACGAAAG, the “self-splicing fitness (ln)” value reads like this: (30 °C) -3.88 ± 0.31; (37 °C) -1.92 ± 0.23. In the case of ACUCAGCAAUAUUACGCAGU, the “self-splicing fitness (ln)” value is, setting by setting: (30 °C) -3.55 ± 0.16; (37 °C) -2.28 ± 0.17. The corresponding values for GUCGAGCAAUAUUACGUUCA are -0.837 ± 0.084 and -0.462 ± 0.086. For GGCCAGCAAUAUUACGGUAU the same measures were -0.512 ± 0.06 and 0.47 ± 0.084. Take GCAUAGCAAUAUUACGCCGU: the “self-splicing fitness (ln)” value (30 °C) is -3.07 ± 0.15 and the “self-splicing fitness (ln)” value (37 °C) was -1.83 ± 0.14.

Consider GUGCAGCAAUAUUACGCCUC, for which the “self-splicing fitness (ln)” value was -0.807 ± 0.17 (30 °C) and 0.123 ± 0.21 (37 °C).

For the sequence UCGGAGCAAUAUUACGUGGA, the “self-splicing fitness (ln)” value is -1.28 ± 0.2 (30 °C) and -1.48 ± 0.18 (37 °C). As for CAUAAGCAAUAUUACGGCUG, the “self-splicing fitness (ln)” value runs as follows: (30 °C) -0.37 ± 0.082; (37 °C) 0.0915 ± 0.12. The corresponding values for UAAUAGCAAUAUUACGGGCG are -1.45 ± 0.1 and -0.567 ± 0.13. On to CUCGAGCAAUAUUACGCCAU, for which the “self-splicing fitness (ln)” value was -2.93 ± 0.48 (30 °C) and -1.94 ± 0.35 (37 °C). For GCGGAGCAAUAUUACGCGAG, the “self-splicing fitness (ln)” value (37 °C) was -2.39 ± 0.36. For the sequence GCUGAGCAAUAUUACGUAUA, the “self-splicing fitness (ln)” value was -3.69 ± 0.26 (30 °C) and -2.22 ± 0.29 (37 °C). Regarding GCCGAGCAAUAUUACGGAGU, the “self-splicing fitness (ln)” value by setting is: (30 °C) -2.42 ± 0.18; (37 °C) -1.56 ± 0.12. The corresponding values for AUUCAGCAAUAUUACGGGUA are -1.89 ± 0.11 and -1.31 ± 0.12. For AAAAAGCAAUAUUACGUCCA the same measures were -0.18 ± 0.076 and 0.113 ± 0.11. As for AAGGAGCAAUAUUACGGUGA, the “self-splicing fitness (ln)” value is, setting by setting: (30 °C) -2.44 ± 0.21; (37 °C) -1.09 ± 0.2. Take UCUGAGCAAUAUUACGAGCC: the “self-splicing fitness (ln)” value (30 °C) was -1.65 ± 0.22. For the sequence AUGUAGCAAUAUUACGGAGA, for the setting “37 °C”, the “self-splicing fitness (ln)” value was -2.06 ± 0.38.

As for AACUAGCAAUAUUACGUUCG, the “self-splicing fitness (ln)” value (30 °C) was -3.36 ± 0.26 and the “self-splicing fitness (ln)” value (37 °C) was -1.79 ± 0.16.

Regarding CAAAAGCAAUAUUACGCGAC, the “self-splicing fitness (ln)” value (30 °C) was -3.52 ± 0.34 and the “self-splicing fitness (ln)” value (37 °C) is -4.08 ± 0.42. For AUAUAGCAAUAUUACGGUUC the same measures were -3.14 ± 0.17 and -2.5 ± 0.24. The corresponding values for GGCCAGCAAUAUUACGUGCA are -0.734 ± 0.078 and -0.196 ± 0.074. For UCACAGCAAUAUUACGGGAU the same measures were -3.45 ± 0.23 and -2.36 ± 0.24. Consider GUUGAGCAAUAUUACGACAU, for which the “self-splicing fitness (ln)” value (30 °C) was -0.358 ± 0.014 and the “self-splicing fitness (ln)” value (37 °C) is -0.067 ± 0.034.

As for CCAGAGCAAUAUUACGUCUG, the “self-splicing fitness (ln)” value was -3.53 ± 0.2 (30 °C) and -1.63 ± 0.14 (37 °C). The corresponding values for AUUGAGCAAUAUUACGACAA are -2.28 ± 0.29 and -1.31 ± 0.23.

Regarding AAUAAGCAAUAUUACGUUAC, the “self-splicing fitness (ln)” value (30 °C) is -3.62 ± 0.18 and the “self-splicing fitness (ln)” value (37 °C) is -1.39 ± 0.14. For UGCUAGCAAUAUUACGAAGU, the “self-splicing fitness (ln)” value runs as follows: (30 °C) -2.88 ± 0.3; (37 °C) -2.51 ± 0.49.

Turning to GGGCAGCAAUAUUACGAUGG, the “self-splicing fitness (ln)” value (30 °C) was -3.22 ± 0.35. In the case of AAUUAGCAAUAUUACGAUAG, the “self-splicing fitness (ln)” value is -3.1 ± 0.26 (30 °C) and -1.75 ± 0.18 (37 °C).

For UGACAGCAAUAUUACGCAUC, the “self-splicing fitness (ln)” value (30 °C) is -4 ± 0.27 and the “self-splicing fitness (ln)” value (37 °C) was -1.28 ± 0.2. Consider ACCUAGCAAUAUUACGGAUC, for which the “self-splicing fitness (ln)” value is -2.65 ± 0.13 (30 °C) and -1.35 ± 0.15 (37 °C). As for CUAGAGCAAUAUUACGUCUU, the “self-splicing fitness (ln)” value was -3.52 ± 0.18 (30 °C) and -2.27 ± 0.22 (37 °C). On to AUAUAGCAAUAUUACGAAGG, for which the “self-splicing fitness (ln)” value is -2.83 ± 0.3 (30 °C) and -2.3 ± 0.4 (37 °C). For UAGCAGCAAUAUUACGCCCU the same measures were -0.738 ± 0.087 and -0.863 ± 0.11.

For GCGGAGCAAUAUUACGCAUU, where the note is “30 °C”, the “self-splicing fitness (ln)” value was -2.8 ± 0.39. CUCCAGCAAUAUUACGCGGG: the “self-splicing fitness (ln)” value was -3.86 ± 0.24 (30 °C) and -1.82 ± 0.23 (37 °C). In the case of AGAUAGCAAUAUUACGGUUU, the “self-splicing fitness (ln)” value is -0.692 ± 0.055 (30 °C) and -0.341 ± 0.076 (37 °C). The corresponding values for UGACAGCAAUAUUACGAAUU are -2.9 ± 0.2 and -1.53 ± 0.21.

Turning to UCAAAGCAAUAUUACGCGGC, the “self-splicing fitness (ln)” value (30 °C) is -3.92 ± 0.3 and the “self-splicing fitness (ln)” value (37 °C) was -2.59 ± 0.23. The corresponding values for UGUUAGCAAUAUUACGGCAU are -3.67 ± 0.32 and -1.95 ± 0.27. ACGAAGCAAUAUUACGGUCC: the “self-splicing fitness (ln)” value (30 °C) was -1.92 ± 0.21 and the “self-splicing fitness (ln)” value (37 °C) is -0.717 ± 0.21. Regarding CGUGAGCAAUAUUACGCUUC, the “self-splicing fitness (ln)” value reads like this: (30 °C) -3.91 ± 0.41; (37 °C) -3.07 ± 0.43.

On to CACGAGCAAUAUUACGCAAA, for which the “self-splicing fitness (ln)” value runs as follows: (30 °C) -3.96 ± 0.33; (37 °C) -2.08 ± 0.19. As to CAACAGCAAUAUUACGCUCU, the “self-splicing fitness (ln)” value by setting is: (30 °C) -1.33 ± 0.079; (37 °C) -0.581 ± 0.1. For UCCUAGCAAUAUUACGGUGG the same measures were -3.31 ± 0.15 and -2.32 ± 0.13.

Turning to CCAUAGCAAUAUUACGAUGC, the “self-splicing fitness (ln)” value is, setting by setting: (30 °C) -3.11 ± 0.17; (37 °C) -1.88 ± 0.17.
